Where no end group is shown, it is not given here. The star is where a group is joined. Biotin = O=C1N[C@H]2[C@H](CS[C@H]2CCCCC(=O)*)N1
Target: HLA-DR3 (HLA-DRβ1-Arg74 positive) on the surface of VAVY cells (human (endogenous in VAVY))
Assay: flow cytometry on cells

Q: With Biotin-GIFNTGLKMFPDLTKVYST [TSHR132–150 peptide, biotinylated] as the binder, how does the percent binding to DRβ-Arg74-positive cells at 10 μM peptide read?
A: 5.1%

Q: And the percent binding to DRβ-Arg74-positive cells at 20 μM peptide?
A: 21.7%

Q: What about the percent binding to DRβ-Arg74-positive cells at 50 μM peptide of the same binder?
A: 51%

Q: Which results are given for Biotin-FNGTKLDAVYLNKNKYLTVI [TSHR197–216 peptide, biotinylated]?
A: percent binding to DRβ-Arg74-positive cells at 10 μM peptide: 14.7%; percent binding to DRβ-Arg74-positive cells at 20 μM peptide: 19.4%; percent binding to DRβ-Arg74-positive cells at 50 μM peptide: 72.9%
